Laboratory results reported in patent US20260184814A1, “BROADLY NE[…] INFLUENZA NEURAMINIDASE” (priority 2022, published 2026).
Values joined by “and” are separate entries in the source; they are usually repeats but may differ in a detail not shown here. Equal entries are not always repeated. Where two headings read alike, the source gives them in different places.

Legend:
N2 [1] = assay: Bio-Layer Interferometry (BLI); printed as kdis
N1 [2] = assay: Bio-Layer Interferometry (BLI); printed as kdis
N9 [3] = assay: Bio-Layer Interferometry (BLI); printed as kdis
[4] = target: N3 neuraminidase from A/Canada/rv504/2004 (Influenza A virus A/Canada/rv504/2004); assay: flow cytometry, NA transiently expressed on Expi-CHO cells
[5] = target: N1 neuraminidase from A/Stockholm/18/2007 (Influenza A virus A/Stockholm/18/2007); assay: as above
[6] = target: N2 neuraminidase from A/Washington/01/2007 (Influenza A virus A/Washington/01/2007); assay: as above
[7] = target: N9 neuraminidase from A/Anhui/1/2013 (Influenza A virus A/Anhui/1/2013 (H7N9)); assay: as above
[8] = target: N2 A/HONG KONG/68 (Influenza A virus); assay: as above
[9] = target: N2 neuraminidase from A/Leningrad/134/17/57 (Influenza A virus A/Leningrad/134/17/57) (UniProt Q67214); assay: as above
[10] = target: N7 neuraminidase from A/Netherlands/078/03 (Influenza A virus A/Netherlands/078/03); assay: as above
[11] = target: IBV neuraminidase from B/Lee/10/1940 (Ancestral) (Influenza B virus B/Lee/10/1940) (UniProt P03474); assay: as above
[12] = target: B/MALAYSIA/3120318925/2013 (YAMAGATA) (Influenza B virus); assay: as above
[13] = target: IBV neuraminidase from B/Malaysia/2506/2004 (Victoria) (Influenza B virus B/Malaysia/2506/2004); assay: as above
[14] = target: IBV neuraminidase from B/Yamanashi/166/1998 (Yamagata) (Influenza B virus B/Yamanashi/166/1998); assay: as above
[15] = target: N6 neuraminidase from A/swine/Ontario/01911/1/99 (Influenza A virus A/swine/Ontario/01911/1/99); assay: as above
[16] = target: B/WISCONSIN/1/2010 (YAMAGATA) (Influenza B virus); assay: as above
[17] = target: N8 A/HARBOR SEAL/NEW …/179629/2011 (Influenza A virus); assay: as above
[18] = target: N5 A/AQUATIC BIRD/KOREA/CN5/2009 (Influenza A virus); assay: as above
[19] = target: N4 A/MALLARD DUCK/…/30/2011 (Influenza A virus); assay: as above
N2 [20] = assay: Bio-Layer Interferometry (BLI)
N1 [21] = assay: Bio-Layer Interferometry (BLI)
N9 [22] = assay: Bio-Layer Interferometry (BLI)
[23] = target: N1 neuraminidase from A/Swine/Jiangsu/J004/2018 (Influenza A virus A/Swine/Jiangsu/J004/2018 (H1N1))
[24] = target: N1 neuraminidase from A/Swine/Jiangsu/J004/2018 (Influenza A virus A/Swine/Jiangsu/J004/2018 (H1N1)); remark: listed apart in the source
[25] = target: N1 neuraminidase from A/Swine/Jiangsu/J004/2018 (Influenza A virus A/Swine/Jiangsu/J004/2018 (H1N1)); assay: flow cytometry, cells infected with A/Swine/Jiangsu/J004/2018, antibody 50 µg/ml
[26] = target: N1 neuraminidase from A/Swine/Jiangsu/J004/2018 (Influenza A virus A/Swine/Jiangsu/J004/2018 (H1N1)); assay: flow cytometry, cells infected with A/Swine/Jiangsu/J004/2018, antibody 10 µg/ml
[27] = target: N2 neuraminidase from A/South Australia/34/2019 (Influenza A virus A/South Australia/34/2019)
[28] = target: N1 neuraminidase from A/Swine/Jiangsu/J004/2018 (Influenza A virus A/Swine/Jiangsu/J004/2018 (H1N1)); assay: flow cytometry, cells infected with A/Swine/Jiangsu/J004/2018, antibody 2 µg/ml
[29] = target: B/BRISBANE/60/2008 (VICTORIA) (Influenza B virus); assay: flow cytometry, NA transiently expressed on Expi-CHO cells
N9 NA (FIGS. 96A-96C) = assay: Bio-Layer Interferometry (BLI)
NA-9 = assay: BLI, antibody loaded on the sensor (Loading Sample ID: FNI9), NA-9 as sample
[30] = target: N2 neuraminidase from A/South Australia/34/2019 (Influenza A virus A/South Australia/34/2019); remark: listed apart in the source
[31] = target: N1 neuraminidase from A/Swine/Jiangsu/J004/2018 (Influenza A virus A/Swine/Jiangsu/J004/2018 (H1N1)); remark: listed apart in the source
[32] = target: human FcγRIIIa (V158 allele) (human) (UniProt P08637)
Chain of human FcγRIIIa (V158 allele) (human) (P08637 17-208 F176V limits assumed): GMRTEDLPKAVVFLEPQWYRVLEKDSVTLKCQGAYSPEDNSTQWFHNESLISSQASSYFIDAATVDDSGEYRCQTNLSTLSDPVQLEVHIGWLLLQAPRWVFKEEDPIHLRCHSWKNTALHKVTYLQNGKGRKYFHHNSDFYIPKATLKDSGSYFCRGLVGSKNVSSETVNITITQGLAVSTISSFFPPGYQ

[33] = target: human FcγRIIIa (F158 allele) (human) (UniProt P08637)
Chain of human FcγRIIIa (F158 allele) (human) (P08637 17-208 limits assumed): as the sequence (P08637 17-208 F176V limits assumed) above, with V160F counted along it

human FcγRIIb (human) [34] = target: human FcγRIIb (human) (UniProt P31994); assay: MSD
Chain of human FcγRIIb (human) (P31994 43-217 limits assumed): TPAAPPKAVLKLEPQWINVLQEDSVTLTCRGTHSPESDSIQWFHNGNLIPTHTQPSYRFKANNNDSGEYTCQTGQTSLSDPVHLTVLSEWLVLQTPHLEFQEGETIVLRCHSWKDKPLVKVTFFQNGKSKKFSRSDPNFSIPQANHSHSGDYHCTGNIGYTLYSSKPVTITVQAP

human FcγRIIb (human) [35] = target: human FcγRIIb (human) (UniProt P31994); assay: MSD [cont'd]
human FcRn (human) [36] = target: human FcRn (human) (UniProt P55899); assay: MSD [cont'd]
Chain of human FcRn (human) (P55899 24-297 limits assumed, chain 1 of 2): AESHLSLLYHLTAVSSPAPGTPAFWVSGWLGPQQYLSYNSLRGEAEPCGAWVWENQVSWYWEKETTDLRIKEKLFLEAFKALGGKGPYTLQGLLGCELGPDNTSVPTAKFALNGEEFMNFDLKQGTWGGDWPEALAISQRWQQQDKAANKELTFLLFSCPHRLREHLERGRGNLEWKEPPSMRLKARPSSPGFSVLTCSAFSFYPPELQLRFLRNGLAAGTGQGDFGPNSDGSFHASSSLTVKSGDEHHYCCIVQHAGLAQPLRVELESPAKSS
Chain of human FcRn (human) (chain, as listed by the source limits assumed, chain 2 of 2): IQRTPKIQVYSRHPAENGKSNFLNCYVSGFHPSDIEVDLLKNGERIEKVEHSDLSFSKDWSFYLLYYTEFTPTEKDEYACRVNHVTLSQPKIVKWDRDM

[37] = target: human FcγRIIa (R131 allele) (human) (UniProt P12318); assay: MSD [cont'd]
Chain of human FcγRIIa (R131 allele) (human) (P12318 34-218 H167R limits assumed): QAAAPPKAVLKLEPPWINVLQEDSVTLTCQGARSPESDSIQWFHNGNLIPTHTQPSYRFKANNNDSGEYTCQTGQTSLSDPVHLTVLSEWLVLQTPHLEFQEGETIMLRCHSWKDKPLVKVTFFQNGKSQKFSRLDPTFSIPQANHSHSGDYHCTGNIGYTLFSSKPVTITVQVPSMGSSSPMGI

[38] = target: human FcγRIIIa (V158 allele) (human) (UniProt P08637); assay: MSD [cont'd]
[39] = target: human FcγRIIIa (F158 allele) (human) (UniProt P08637); assay: MSD [cont'd]
human FcγRIIIb (human) [40] = target: human FcγRIIIb (human) (UniProt O75015); assay: MSD [cont'd]
Chain of human FcγRIIIb (human) (O75015 17-200 limits assumed): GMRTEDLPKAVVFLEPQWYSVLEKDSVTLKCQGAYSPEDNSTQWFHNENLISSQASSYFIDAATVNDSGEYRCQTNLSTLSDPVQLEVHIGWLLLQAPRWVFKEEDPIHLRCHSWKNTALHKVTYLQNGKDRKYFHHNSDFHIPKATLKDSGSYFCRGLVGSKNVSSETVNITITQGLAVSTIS

[41] = target: human FcγRIIa (H131 allele) (human) (UniProt P12318); assay: MSD [cont'd]
Chain of human FcγRIIa (H131 allele) (human) (P12318 34-218 limits assumed): as the sequence (P12318 34-218 H167R limits assumed) above, with R134H counted along it

human FcγRIIb (human) [42] = target: human FcγRIIb (human) (UniProt P31994); assay: Table B summary, vs fucosylated wild-type human IgG1
human FcγRIIb (human) [43] = target: human FcγRIIb (human) (UniProt P31994)
[44] = target: human FcγRIIIa (V158 allele) (human) (UniProt P08637); remark: listed apart in the source
[45] = target: human FcγRIIIa (F158 allele) (human) (UniProt P08637); remark: listed apart in the source
[46] = target: human FcγRIIa (H131 allele) (human) (UniProt P12318)
[47] = target: human FcγRIIa (R131 allele) (human) (UniProt P12318); assay: MSD
[48] = target: human FcγRIIIa (V158 allele) (human) (UniProt P08637); assay: MSD
[49] = target: human FcγRIIIa (F158 allele) (human) (UniProt P08637); assay: MSD
human FcγRIIIb (human) [50] = target: human FcγRIIIb (human) (UniProt O75015); assay: MSD
[51] = target: human FcγRIIa (H131 allele) (human) (UniProt P12318); assay: MSD
human C1q (human) = human C1q (human) (UniProt P02745); assay: MSD [cont'd]
Chain of human C1q (human) (P02745 23-245 limits assumed, chain 1 of 3): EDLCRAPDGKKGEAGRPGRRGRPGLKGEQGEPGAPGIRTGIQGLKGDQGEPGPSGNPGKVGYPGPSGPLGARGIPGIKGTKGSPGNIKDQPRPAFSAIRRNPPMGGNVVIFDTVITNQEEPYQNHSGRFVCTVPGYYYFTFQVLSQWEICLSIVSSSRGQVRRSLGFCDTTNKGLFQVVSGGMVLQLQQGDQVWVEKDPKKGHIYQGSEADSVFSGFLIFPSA
Chain of human C1q (human) (P02746 28-253 limits assumed, chain 2 of 3, further chain): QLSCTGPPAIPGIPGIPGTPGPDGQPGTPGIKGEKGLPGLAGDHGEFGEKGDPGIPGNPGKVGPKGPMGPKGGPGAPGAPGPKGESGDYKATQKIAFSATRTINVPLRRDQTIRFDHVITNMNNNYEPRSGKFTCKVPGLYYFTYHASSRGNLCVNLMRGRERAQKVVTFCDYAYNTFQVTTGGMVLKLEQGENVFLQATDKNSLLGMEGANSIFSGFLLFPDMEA
Chain of human C1q (human) (P02747 29-245 limits assumed, chain 3 of 3, further chain): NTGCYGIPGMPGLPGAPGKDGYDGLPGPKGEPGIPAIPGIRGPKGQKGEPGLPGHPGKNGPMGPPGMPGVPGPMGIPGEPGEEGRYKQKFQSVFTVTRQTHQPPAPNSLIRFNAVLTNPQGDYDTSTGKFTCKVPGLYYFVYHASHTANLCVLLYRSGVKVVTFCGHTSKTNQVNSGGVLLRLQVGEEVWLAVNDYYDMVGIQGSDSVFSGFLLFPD

human FcRn (human) [52] = target: human FcRn (human) (UniProt P55899); assay: MSD, pH 6 [cont'd]

1G01 (antibody)
koff (N2 [1]): < 1e-07 s⁻¹ | koff (N1 [2]): 4.79e-05 s⁻¹ | koff (N9 [3]): < 1e-07 s⁻¹ | lowest concentration at which binding was observed (EC50 scale class) [4]: 0.4 µg/mL | lowest concentration at which binding was observed (EC50 scale class) [5]: 0.4 µg/mL | lowest concentration at which binding was observed (EC50 scale class) [6]: 0.4 µg/mL | lowest concentration at which binding was observed (EC50 scale class) [7]: 0.4 µg/mL | lowest concentration at which binding was observed (EC50 scale class) [8]: 0.4 µg/mL | lowest concentration at which binding was observed (EC50 scale class) [9]: 0.4 µg/mL | lowest concentration at which binding was observed (EC50 scale class) [10]: 0.4 µg/mL | lowest concentration at which binding was observed (EC50 scale class) [11]: 10 µg/mL | lowest concentration at which binding was observed (EC50 scale class) [12]: 10 µg/mL | lowest concentration at which binding was observed (EC50 scale class) [13]: 0.4 µg/mL | lowest concentration at which binding was observed (EC50 scale class) [14]: 2 µg/mL | lowest concentration at which binding was observed (EC50 scale class) [15]: 0.4 µg/mL | lowest concentration at which binding was observed (EC50 scale class) [16]: 2 µg/mL | lowest concentration at which binding was observed (EC50 scale class) [17]: 0.4 µg/mL | lowest concentration at which binding was observed (EC50 scale class) [18]: 2 µg/mL | lowest concentration at which binding was observed (EC50 scale class) [19]: 0.4 µg/mL | Kd (N2 [20]): < 0.001 nM | kon (N2 [20]): 40200 M⁻¹ s⁻¹ | Kd (N1 [21]): 0.868 nM | kon (N1 [21]): 55100 M⁻¹ s⁻¹ | Kd (N9 [22]): < 0.001 nM | kon (N9 [22]): 106000 M⁻¹ s⁻¹

FNI9 (antibody)
% Alexa 647-A+ cells [23]: 84% and 83.5% | % Alexa 647-A+ cells [24]: 82.1% and 78% | % of cells in the Alexa 647-A positive gate [25]: 84% | % of cells in the Alexa 647-A positive gate [26]: 83.5% | % Alexa 647-A+ cells [27]: 57% and 68.8% | % of cells in the Alexa 647-A positive gate [28]: 82.1% | lowest concentration at which binding was observed (EC50 scale class) [4]: 0.4 µg/mL | lowest concentration at which binding was observed (EC50 scale class) [5]: 0.4 µg/mL | lowest concentration at which binding was observed (EC50 scale class) [7]: 0.4 µg/mL | lowest concentration at which binding was observed (EC50 scale class) [8]: 0.4 µg/mL | lowest concentration at which binding was observed (EC50 scale class) [10]: 50 µg/mL | lowest concentration at which binding was observed (EC50 scale class) [12]: 0.4 µg/mL | lowest concentration at which binding was observed (EC50 scale class) [13]: 0.4 µg/mL | lowest concentration at which binding was observed (EC50 scale class) [14]: 0.4 µg/mL | lowest concentration at which binding was observed (EC50 scale class) [15]: 0.4 µg/mL | lowest concentration at which binding was observed (EC50 scale class) [29]: 0.4 µg/mL | lowest concentration at which binding was observed (EC50 scale class) [16]: 0.4 µg/mL | lowest concentration at which binding was observed (EC50 scale class) [17]: 50 µg/mL | lowest concentration at which binding was observed (EC50 scale class) [19]: 0.4 µg/mL | Kd (N2 [20]): < 0.001 nM | Kd (N1 [21]): 0.0164 nM | Kd (N9 [22]): < 0.001 nM | Kd (N9 NA (FIGS. 96A-96C)): < 0.001 nM | Kd (NA-9): 0.088 nM | % Alexa 647-A+ cells [30]: 66.1% and 71.3% | % of cells in the Alexa 647-A positive gate [31]: 78%

G236R_L328R-afuc (antibody)
FcγR reporter signaling, fold to wt-fucose [cont'd] [32]: 0.2 fold | FcγR reporter signaling, fold to wt-fucose [cont'd] [33]: 0.05 fold | fold-change (reference not given) (human FcγRIIb (human) [34]): 0.2 fold | fold to wt-fucose (human FcγRIIb (human) [35]): 0.17 fold | fold to wt-fucose (human FcRn (human) [36]): 1.09 fold | fold to wt-fucose [37]: 0.24 fold | fold to wt-fucose [38]: 0.07 fold | fold to wt-fucose [39]: 0.33 fold | fold to wt-fucose (human FcγRIIIb (human) [40]): 0.6 fold | fold to wt-fucose [41]: 0.16 fold

IgG1 antibody with Fc variant G236A_R292P
fold-change in binding vs fucosylated wild-type human IgG1 (human FcγRIIb (human) [42]): 0.5 fold | FcγR reporter signaling, fold-change vs wt [cont'd] (human FcγRIIb (human) [43]): 0.15 fold | FcγR reporter signaling, fold-change vs wt [cont'd] [44]: 0.54 fold | FcγR reporter signaling, fold-change vs wt [cont'd] [45]: 0.29 fold | FcγR reporter signaling, fold-change vs wt [cont'd] [46]: 1.47 fold | fold-change to WT Fc (human FcγRIIb (human) [34]): 0.446 fold | fold-change vs wt (human FcγRIIb (human) [34]): 0.45 fold | fold-change to WT Fc [47]: 1.04 fold | fold-change vs wt [47]: 1.04 fold | fold-change vs wt [48]: 0.41 fold | fold-change vs wt [49]: 0.6 fold | fold-change vs wt (human FcγRIIIb (human) [50]): 0.95 fold | fold-change to WT Fc [51]: 5.65 fold | fold-change vs wt [51]: 5.65 fold | fold-change to WT Fc (human C1q (human)): 0.125 fold | fold-change vs wt (human C1q (human)): 0.13 fold | fold-change vs wt (human FcRn (human) [36]): 0.81 fold | fold-change to WT Fc [38]: 0.411 fold | fold-change to WT Fc [39]: 0.603 fold | fold-change to WT Fc (human FcRn (human) [52]): 0.809 fold

IgG1 antibody with Fc variant G236S_G420V_G446E_L309T
fold-change in binding vs fucosylated wild-type human IgG1 (human FcγRIIb (human) [42]): 0.5 fold | FcγR reporter signaling, fold-change vs wt [cont'd] (human FcγRIIb (human) [43]): 0.22 fold | FcγR reporter signaling, fold-change vs wt [cont'd] [44]: 0.06 fold | FcγR reporter signaling, fold-change vs wt [cont'd] [45]: 0.03 fold | FcγR reporter signaling, fold-change vs wt [cont'd] [46]: 2.56 fold | fold-change vs wt (human FcγRIIb (human) [34]): 0.39 fold | fold-change vs wt [47]: 1.47 fold | fold-change vs wt [48]: 0.09 fold | fold-change vs wt [49]: 0.32 fold | fold-change vs wt (human FcγRIIIb (human) [50]): 0.56 fold | fold-change vs wt [51]: 4.85 fold | fold-change vs wt (human C1q (human)): 0.21 fold | fold-change vs wt (human FcRn (human) [36]): 0.77 fold
